Test results as given in patent publication US20210318312.
Residue numbers refer to the chain shown, from its start. Names and notes keep the numbering of the source.

How the values were obtained:
H3 K9 Lipoyl peptide = molecular target: T1, H3 K9 Lipoyl peptide
T1 chain: KQTARKSTGGWW

H3 K9 Acetyl peptide = molecular target: T2, H3 K9 Acetyl peptide
T2 chain: KQTARKSTGGWW

[1] = molecular target: purified porcine heart pyruvate dehydrogenase (Sigma-Aldrich, cat. #P7032)
DLAT K259 Acetyl peptide = molecular target: T3, DLAT K259 Acetyl peptide
T3 chain: EIETDKATIGW

H3 K9 Biotinyl peptide = molecular target: T4, H3 K9 Biotinyl peptide
T4 chain: KQTARKSTGGWW

[2] = molecular target: T5, lipoyl-modified DLAT peptide of the LC-MS deacylation assay
T5 chain: EIETDKATIGWW

[3] = molecular target: T6, lipoyl-modified PDHX peptide
T6 chain: EIETDKAVVTWW

DLAT K259 Lipoyl peptide = molecular target: T7, DLAT K259 Lipoyl peptide
T7 chain: EIETDKATIGWW

B1: recombinant SIRT4 (N-terminally truncated human Sirt4, 33-314 of SEQ ID NO: 2) (protein)
chain: VPASPPLDPEKVKELQRFITLSKRLLVMTGAGISTESGIPDYRSEKVGLYARTDRRPIQHGDFVRSAPIRQRYWARNFVGWPQFSSHQPNPAHWALSTWEKLGKLYWLVTQNVDALHTKAGSRRLTELHGCMDRVLCLDCGEQTPRGVLQERFQVLNPTWSAEAHGLAPDGDVFLSEEQVRSFQVPTCVQCGGHLKPDVVFFGDTVNPDKVDFVHKRVKEADSLLVVGSSLQVYSGYRFILTAWEKKLPIAILNIGPTRSDDLACLKLNSRCGELLPLIDPC
For B1, the Km (H3 K9 Lipoyl peptide) was 814 µM, the “LC-MS-based deacylation assay, hydrolysis of the acyl-lysine modification” value (H3 K9 Lipoyl peptide) was “SIRT4 was able to hydrolyze all three modifications” and the “catalytic efficiency, fold (another experiment)” value (H3 K9 Lipoyl peptide) was “lipoyl (28-fold)”. For the same protein, the “catalytic efficiency, fold against acetylated H3K9” value (H3 K9 Lipoyl peptide) was “lipoyl (SEQ ID NO: 3 (30-fold)”, the kcat (H3 K9 Lipoyl peptide) was 0.0019 s⁻¹ and the kcat/Km (H3 K9 Lipoyl peptide) was 2.3 s^-1M^-1. For the same protein, the “relative amount of unmodified product generated using 5 µM SIRT4” value (shortened to “relative amount”) (H3 K9 Lipoyl peptide) was 11% (lipoyl-SEQ ID NO: 3), the Km (H3 K9 Acetyl peptide) was “ND* (>2500)” and the “LC-MS-based deacylation assay, hydrolysis of the acyl-lysine modification” value (H3 K9 Acetyl peptide) was “SIRT4 was able to hydrolyze all three modifications”. The kcat/Km (H3 K9 Acetyl peptide) was 0.083 s^-1M^-1, the “relative amount” value (H3 K9 Acetyl peptide) was 0.3% (acetyl-SEQ ID NO: 3) and the “PDH activity, immuno-capture colorimetric assay” value [1] was “only active SIRT4 was able to attenuate PDH activity”. The Km (DLAT K259 Acetyl peptide) was “ND* (>2500)”, the “catalytic efficiency, fold lower than DLAT lipoyl” value (DLAT K259 Acetyl peptide) was “this efficiency was still 38-fold lower than DLAT lipoyl” and the kcat (DLAT K259 Acetyl peptide) was 0.0011 s⁻¹. For the same protein, the kcat/Km (DLAT K259 Acetyl peptide) was 0.2 s^-1M^-1, the Km (MCD K471 Acetyl peptide) was “ND (>2500)” and the kcat/Km (MCD K471 Acetyl peptide) was 0.0064 s^-1M^-1. The Km (H3 K9 Biotinyl peptide) was 719 µM, the “LC-MS-based deacylation assay, hydrolysis of the acyl-lysine modification” value (H3 K9 Biotinyl peptide) was “SIRT4 was able to hydrolyze all three modifications” and the “catalytic efficiency, fold (another experiment)” value (H3 K9 Biotinyl peptide) was “biotinyl (9-fold)”. For the same protein, the “catalytic efficiency, fold against acetylated H3K9” value (H3 K9 Biotinyl peptide) was “biotinyl (SEQ ID NO: 4) (11-fold)”, the kcat (H3 K9 Biotinyl peptide) was 0.0005 s⁻¹ and the kcat/Km (H3 K9 Biotinyl peptide) was 0.74 s^-1M^-1. For the same protein, the “relative amount” value (H3 K9 Biotinyl peptide) was 3% (biotinyl-SEQ ID NO: 4), the “proportion of unmodified peptide generated following reaction” value [2] was “increased to 33% for DLAT (SEQ ID NO: 11)” and the “proportion of unmodified peptide generated following reaction” value [3] was 42% for PDHX (SEQ ID NO: 13). For the same protein, the Km (DLAT K259 Lipoyl peptide) was 239 µM, the “catalytic efficiency, fold against H3K9 lipoyl” value (DLAT K259 Lipoyl peptide) was 3.5-fold increased efficiency compared to H3K9 lipoyl and the “catalytic efficiency, fold against H3K9 lipoyl (another experiment)” value (DLAT K259 Lipoyl peptide) was 3.3-fold increase in efficiency compared to H3K9 lipoyl. The “catalytic efficiency, fold against deacetylation of MCD” value (DLAT K259 Lipoyl peptide) was “˜1270-fold more efficient at hydrolyzing the DLAT lipoamide”, the kcat (DLAT K259 Lipoyl peptide) was 0.0016 s⁻¹ and the kcat/Km (DLAT K259 Lipoyl peptide) was 7.65 s^-1M^-1.

B2: recombinant SIRT4 H161Y catalytic mutant (protein)
chain: B1 chain with H129Y
For B2, the LC-MS-based deacylation assay (H3 K9 Lipoyl peptide) was “observed no significant activity for any of these substrates”, the LC-MS-based deacylation assay (H3 K9 Acetyl peptide) was “observed no significant activity for any of these substrates” and the “PDH activity, immuno-capture colorimetric assay” value [1] was “only active SIRT4 was able to attenuate PDH activity”. The LC-MS-based deacylation assay (H3 K9 Biotinyl peptide) was “observed no significant activity for any of these substrates”.

B3: recombinant SIRT3 (Sigma, cat. #SRP0117-100UG) (protein)
chain: ISFSVGASSVVGSGGSSDKGKLSLQDVAELIRARACQRVVVMVGAGISTPSGIPDFRSPGSGLYSNLQQYDLPYPEAIFELPFFFHNPKPFFTLAKELYPGNYKPNVTHYFLRLLHDKGLLLRLYTQNIDGLERVSGIPASKLVEAHGTFASATCTVCQRPFPGEDIRADVMADRVPRCPVCTGVVKPDIVFFGEPLPQRFLLHVVDFPMADLLLILGTSLEVEPFASLTEAVRSSVPRLLINRDLVGPLAWHPRSRDVAQLGDVVHGVESLVELLGWTEEMRDLVQRETGKLDGPDK
For B3, the “catalytic efficiency, fold lower than for DLAT acetyl” value (DLAT K259 Lipoyl peptide) was “this efficiency was 13-fold lower than for DLAT acetyl” and the “in vitro deacylation kinetics” value (DLAT K259 Lipoyl peptide) was “SIRT3 showed some enzymatic activity towards DLAT lipoyl”.
